Assay results published in patent US20250382376A1 (FUDAN UNIVERSITY, published 2025).

T1: CD73 on the surface of human cells (human, UniProt P21589 27-549)
T1 sequence (looked up): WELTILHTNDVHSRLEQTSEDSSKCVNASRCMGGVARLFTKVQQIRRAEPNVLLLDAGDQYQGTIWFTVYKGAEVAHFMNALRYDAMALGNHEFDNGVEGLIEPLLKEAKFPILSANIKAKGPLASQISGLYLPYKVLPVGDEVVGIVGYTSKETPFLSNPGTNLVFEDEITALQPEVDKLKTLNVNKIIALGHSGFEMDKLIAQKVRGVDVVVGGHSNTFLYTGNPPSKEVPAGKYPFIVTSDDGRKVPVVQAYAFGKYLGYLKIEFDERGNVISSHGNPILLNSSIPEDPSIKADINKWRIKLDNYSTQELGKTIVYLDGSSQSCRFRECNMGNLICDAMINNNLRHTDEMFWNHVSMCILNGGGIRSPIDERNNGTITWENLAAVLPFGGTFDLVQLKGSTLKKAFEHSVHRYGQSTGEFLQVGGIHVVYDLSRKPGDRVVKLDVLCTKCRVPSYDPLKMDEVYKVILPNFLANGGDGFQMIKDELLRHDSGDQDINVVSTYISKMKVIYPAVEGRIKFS

T2: extracellular domain of human CD73 protein, C-terminus polyhistidine-tagged (human, UniProt P21589 27-547)
T2 construct: also the immunogen; also called CD73-ECD; human CD73-ECD
T2 sequence: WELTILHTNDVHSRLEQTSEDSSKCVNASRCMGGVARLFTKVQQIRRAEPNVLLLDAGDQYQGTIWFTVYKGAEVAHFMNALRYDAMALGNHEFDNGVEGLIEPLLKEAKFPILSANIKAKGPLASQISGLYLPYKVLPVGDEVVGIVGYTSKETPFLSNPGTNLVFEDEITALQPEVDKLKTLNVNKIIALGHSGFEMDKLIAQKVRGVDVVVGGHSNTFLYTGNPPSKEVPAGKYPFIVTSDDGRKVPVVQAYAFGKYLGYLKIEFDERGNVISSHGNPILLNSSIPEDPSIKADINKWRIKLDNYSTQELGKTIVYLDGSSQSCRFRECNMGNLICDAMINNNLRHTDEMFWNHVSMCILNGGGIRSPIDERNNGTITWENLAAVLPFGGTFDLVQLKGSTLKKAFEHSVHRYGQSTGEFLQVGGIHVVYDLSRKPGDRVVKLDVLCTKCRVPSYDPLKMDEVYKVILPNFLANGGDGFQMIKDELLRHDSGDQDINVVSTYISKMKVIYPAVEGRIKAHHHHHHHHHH


How the values were obtained:
[1] = target: T1, CD73 on the surface of human cells; assay: cell-based or functional assay
[2] = target: T2, extracellular domain of human CD73 …; assay: ELISA on human CD73-ECD, 100 µL supernatant of transfected HEK293F cells; PBS blank 0.0675
Procedure: (§1) The CD73 protein extracellular region (CD73-ECD) was diluted to 1 μg/mL using the coating solution, and an ELISA plate was coated at 100 μL/well at 4° C. overnight. Excess antigens were washed away, and the plate was blocked with 1% BSA at room temperature for 2 hours. Then, 5-fold gradient dilutions of each monoclonal antibody were added at 100 μL/well and incubated at room temperature for 1 hour. Unbound antibodies were washed away, and an appropriate concentration of Staphylococcal protein A labeled with horseradish peroxidase was added at 100 μL/well and incubated at room temperature for 0.5 hours. Unbound secondary antibodies were washed away, and TMB color development solution was added to react for about 15 minutes. 1M HCL was added at 50 µL/well to terminate the color development reaction, and then the absorbance was measured at 450 nm and the data was analyzed.
(§2) For the five antibodies from yeast, after transient expression in HEK293F cells, the supernatant was collected after 2 days of continuous culture and ELISA assay was performed using 100 μL, 10 μL, and 1 μL of the supernatant.

[3] = target: T2, extracellular domain of human CD73 …; assay: ELISA on human CD73-ECD, 10 µL supernatant of transfected HEK293F cells; PBS blank 0.0615
Procedure: as §1, §2

[4] = target: T2, extracellular domain of human CD73 …; assay: ELISA on human CD73-ECD, 1 µL supernatant of transfected HEK293F cells; PBS blank 0.073
Procedure: as §1, §2

[5] = target: T2, extracellular domain of human CD73 …; assay: ELISA on CD73-ECD, 100 µL supernatant of antibody expression, second of two readings; PBS 0.19, 0.18
[6] = target: T2, extracellular domain of human CD73 …; assay: ELISA on CD73-ECD, 100 µL supernatant of antibody expression, first of two readings; PBS 0.19, 0.18
Procedure: as §1
(§3) CD73 antigen ELISA binding affinity test was performed according to the method of Example 3.

[7] = target: T2, extracellular domain of human CD73 …; assay: ELISA on CD73-ECD, 4 µL supernatant of antibody expression, second of two readings; PBS 0.19, 0.18
[8] = target: T2, extracellular domain of human CD73 …; assay: ELISA on CD73-ECD, 0.8 µL supernatant of antibody expression, second of two readings; PBS 0.19, 0.18
Procedure: as §1, §3

[9] = target: T2, extracellular domain of human CD73 …; assay: ELISA on CD73-ECD, 20 µL supernatant of antibody expression, second of two readings; PBS 0.19, 0.18
Procedure: as §1, §3

[10] = target: T2, extracellular domain of human CD73 …; assay: ELISA on CD73-ECD, 20 µL supernatant of antibody expression, first of two readings; PBS 0.19, 0.18
Procedure: as §1, §3

[11] = target: T2, extracellular domain of human CD73 …; assay: ELISA on CD73-ECD, 4 µL supernatant of antibody expression, first of two readings; PBS 0.19, 0.18
Procedure: as §1, §3

[12] = target: T2, extracellular domain of human CD73 …; assay: ELISA on CD73-ECD, 0.8 µL supernatant of antibody expression, first of two readings; PBS 0.19, 0.18
Procedure: as §1, §3

| ELISA (OD450) [2] [OD450] | ELISA (OD450) [3] [OD450] | ELISA (OD450) [4] [OD450] | ELISA reading (not named on the sheet) [5] | ELISA reading (not named on the sheet) [6] | ELISA reading (not named on the sheet) [7] | ELISA reading (not named on the sheet) [8] | ELISA reading (not named on the sheet) [9] | ELISA reading (not named on the sheet) [10] | ELISA reading (not named on the sheet) [11] | ELISA reading (not named on the sheet) [12] | Binder | other results |
| --- | --- | --- | --- | --- | --- | --- | --- | --- | --- | --- | --- | --- |
| 4.11 | 1.61 | 0.36 |  |  |  |  |  |  |  |  | chimeric nanobody 1-E7 (Fc fusion, Tested as supernatant of transiently transfected HEK293F cells) VHH: QVQLVESGGGLVQPGGSLRLSCAASGFTLDYYNIGWFRQAPGKEREGVSCISNSDGSTYYADSVKGRFTISRDNAKNTVYLQMNSLKPEDTAVYYCAAYRGWHPSLDARVYDYWGQGTQVTVSS |  |
|  |  |  | 4.28 | 4.32 | 4.16 | 4.08 | 4.29 | 4.17 | 4.23 | 4.17 | 5-E11 derived antibody 5-E11QS (VHH, not shown: a dimerising Fc or GST) VHH: ALQLVESGGGLVQPGGSLRLSCEVSGFTLDYYNIGWFRQAPGKEREGVSCSSQSGGSTYYADSVKGRFTISRDNAKNTVYLQMNSLKPEDTGVYYCAAYRGWHPSLDARVYDYWGQGTEVTVSS |  |
|  |  |  | 4.22 | 4.24 | 4.17 | 4.11 | 4.3 | 4.15 | 4.22 | 4.16 | 5-E11 derived antibody 5-E11GS (VHH, not shown: a dimerising Fc or GST) VHH: ALQLVESGGGLVQPGGSLRLSCEVSGFTLDYYNIGWFRQAPGKEREGVSCSSGSGGSTYYADSVKGRFTISRDNAKNTVYLQMNSLKPEDTGVYYCAAYRGWHPSLDARVYDYWGQGTEVTVSS |  |
| 4.41 | 3.35 | 0.924 |  |  |  |  |  |  |  |  | chimeric nanobody 2-G9 (Fc fusion, Tested as supernatant of transiently transfected HEK293F cells) VHH: QLQLVESGGGLVQPGGSLRLSCAASGFLLDYYTIGWFRQAPGKELEGVSCISSSDSSPYDADSVKGRFTMSRDNANNTVYLQMNSLKPEDTAVYYCAAQRYYYCALRANVYDYWGQGTQVTVST |  |
| 3.01 | 1.11 | 0.143 |  |  |  |  |  |  |  |  | chimeric nanobody 3-F1 (Fc fusion, Tested as supernatant of transiently transfected HEK293F cells) VHH: QVQLVESGVSLVQPGGSLRLSCAASGFTLDYYTIGWFRQAPGKELEGISCIRSSDSSPYDADSVKDRFTMSRDNANNTVYLQMNSLKPEDTADYYCAAQRYYYCSLTANVYDYWGQGTQVTVSS |  |

Continued, binder first:

| Binder | ELISA (OD450) [2] [OD450] | ELISA (OD450) [3] [OD450] | ELISA (OD450) [4] [OD450] | ELISA reading (not named on the sheet) [5] | ELISA reading (not named on the sheet) [6] | ELISA reading (not named on the sheet) [7] | ELISA reading (not named on the sheet) [8] | ELISA reading (not named on the sheet) [9] | ELISA reading (not named on the sheet) [10] | ELISA reading (not named on the sheet) [11] | ELISA reading (not named on the sheet) [12] | other results |
| --- | --- | --- | --- | --- | --- | --- | --- | --- | --- | --- | --- | --- |
| humanized nanobody-drug conjugate 3D7-HM9-FC1-MMAE (Fc fusion, part only; not given: Fc segment and drug payload, part only, vc-MMAE on cysteines; expected DAR 4 for the dimer) VHH, part: QRQLVESGGGLVQPGGSLRLSCAASGFLLDYYVIGWFRQAPGKEREGVSCISGSDRSTYYADSVKGRFTISRDNAKNTVYLQMSSLRAEDTAVYYCAADPSPVTVQAMCLPRFPVPYWGKGTLVTVSS |  |  |  |  |  |  |  |  |  |  |  | EC50, reversal of the AMP inhibition of human T lymphocyte proliferation [1]: 0.0197 µg/mL |
| humanized antibody fusion protein 3D7-HM9-ABD (VHH) VHH: QRQLVESGGGLVQPGGSLRLSCAASGFLLDYYVIGWFRQAPGKEREGVSCISGSDRSTYYADSVKGRFTISRDNAKNTVYLQMSSLRAEDTAVYYCAADPSPVTVQAMCLPRFPVPYWGKGTLVTVSS |  |  |  |  |  |  |  |  |  |  |  | EC50, reversal of the AMP inhibition of human T lymphocyte proliferation [1]: 0.0467 µg/mL; IC50, inhibition of the catalytic function of CD73 enzyme on MDA-MB-231 cells [1]: 0.123 µg/mL |
| chimeric nanobody 2-B10 (Fc fusion, Tested as supernatant of transiently transfected HEK293F cells) VHH: QLQLVESGGGLVQPGGSLRLSCAASGFTLDDNAIGWFRQAPGKEREGVACMRTSDGDTYYADSVKGRFTISRDNAKNTMYLQMNSLKPEDTAVYYCAAALGTYYSGFYYLAGDGMDYWGKGTLVTVSS | 4.46 | 1.28 | 0.254 |  |  |  |  |  |  |  |  |  |
| 5-E11 derived antibody 5-E11AS (VHH, not shown: a dimerising Fc or GST) VHH: ALQLVESGGGLVQPGGSLRLSCEVSGFTLDYYNIGWFRQAPGKEREGVSCSSASGGSTYYADSVKGRFTISRDNAKNTVYLQMNSLKPEDTGVYYCAAYRGWHPSLDARVYDYWGQGTEVTVSS |  |  |  | 4.27 | 4.28 | 4.22 | 4.08 | 4.33 | 4.24 | 4.25 | 4.22 |  |
| chimeric nanobody 3-A3 (Fc fusion, Tested as supernatant of transiently transfected HEK293F cells) VHH: QVQLVESGGGSVQPGGSLRLSCAASGFPLDYYTIGWFRQAPGKELEGVSCISSSDSSPYDADSVKGRFTMSRDNANNTVYLQMNSLKPEDTAVYYCAAQRYYYCSLRANVYDYWGQGTQVTVSS | 4.27 | 2.11 | 0.605 |  |  |  |  |  |  |  |  |  |
